Source: doi:10.1101/2023.06.06.543969 (2023)
Where a chain is given by its changes, count along the chain named. Names may count otherwise. Where two headings read alike, the source gives them in different places.

Experiments:
Experiment in all cases: BLI
[1] = biological target: T1, biotinylated αTSR domain of P. falciparum circumsporozoite protein (P. falciparum, biotinylated)
T1 chain: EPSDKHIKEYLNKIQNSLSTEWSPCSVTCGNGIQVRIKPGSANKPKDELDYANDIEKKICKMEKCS

[2] = biological target: T2, influenza hemagglutinin (HA) from H1N1 A/California/07/2009 (influenza A virus H1N1 …)
[3] = biological target: HCV (isolate H77) E2 domain (HCV (isolate H77))
[4] = biological target: His-tagged HIV Env MPER peptide (HIV)
[5] = biological target: T2, influenza hemagglutinin (HA) from H1N1 …; remark: listed apart in the source
[6] = biological target: T3, biotinylated SARS-CoV-2 fusion peptide (SARS-CoV-2, biotin on the N-terminus)
T3 peptide: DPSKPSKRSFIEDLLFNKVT

[7] = biological target: His6-tagged SARS-CoV-2 receptor-binding domain (SARS-CoV-2, UniProt P0DTC2)

B1: Fab234 (WT) (Fab, V domains shown)
VH: EVQLVESGGGLVKPGGSLRLSCAASGFNFSTHIMNWVRQAPGKGLEWVSSISSSGTYIYYADSMKGRFTISRDNPKNSLYLQMNSLRAEDTAVYYCARARGFIQFHYYMDVWGKGTTVAVSS
VL: SYVLTQPPSVSVAPGKTARITCGGNNIGSKSVHWHQQRPGQAPVLVVYDDKIRPSGIPERFSGSNSGNTATLIISRVEAGDEADYYCQVWHSSSDPVVFGGGTKLTVL
[1]
  Kd: 0.2 nM

B2: 3E1 Fab (WT) (Fab, V domains shown)
VH: QVQLQESGPGLVKPSETLSLTCSVSGASISSYYWIWIRQPAGKGLEWIGRFYTSGSPNYNPSLRSRVTMSVDTSKNQFSLKLTSVTAADTAVYYCAREEHITFGGVIVRYWGQGTLVTVSP
VL: DIQMTQSPATLSASVGDRVSITCRASQSISSWLAWYQQKPGKAPKLLIYKASSLESGVPSRFSGSGSGSEFTLTISSLQPDDFAIYYCQQYNSYPWTFGQGTKVEIK
[2]
  Kd: 6.9 nM

B3: HC84.26.5D Fab (WT) (Fab, V domains shown)
VH: VQPVQSGAEVKKPGSSVKVSCEASGGTHSNYVITWVRQAPGQGLEWMGGFIPDFRTAMYAQGFQGRVTITADESTSLAYMELTNLRSEDTAVYYCARGPLSRGYYDYWGPGTLVTVSS
VL: YVLTQPPSVSVAPGQTASITCSGDKLGDKYVSWYQQRPGQSPVLVLYQDSKRPSGIPERFSGSNSGNTATLTISGTQAMDEADYYCQAWDSSALVFGGGTKLTVL
[3]
  Kd: 0.9 nM

B4: 4E10 Fab (WT) (Fab, V domains shown)
VH: QVQLVQSGAEVKRPGSSVTVSCKASGGSFSTYALSWVRQAPGRGLEWMGGVIPLLTITNYAPRFQGRITITADRSTSTAYLELNSLRPEDTAVYYCAREGTTGWGWLGKPIGAFAHWGQGTLVTVSS
VL: EIVLTQSPGTQSLSPGERATLSCRASQSVGNNKLAWYQQRPGQAPRLLIYGASSRPSGVADRFSGSGSGTDFTLTISRLEPEDFAVYYCQQYGQSLSTFGQGTKVEVK
[4]
  Kd: 9.1 nM

B5: 5J8 Fab (WT) (Fab, V domains shown)
VH: EVQLVESGPGLVKPSDILSLTCAVSGYSISSNYYWGWIRQPPGKGLEWIGSIYHSGSTYYKPSLESRLGISVDTSKNQFSLKLSFVSAADTAVYYCARHVRSGYPDTAYYFDKWGQGTLVTVSS
VL: SYVLTQPPSVSVAPGETARISCGGNNIGTKVLHWYQQTPGQAPVLVVYDDSDRPSGIPERFSGSNSGNTATLTISRVEVGDEADYYCQVWDISTDQAVFGGGTKLTVL
[5]
  Kd: 4 nM

B6: COV44–62 Fab (WT) (Fab, V domains shown)
VH: QMQLMQSGAEVKKPGASVTVSCKASGDTFSDYRIHWVRQAPGQGLEWMGRMNPKSGDTNFAQKFQGRVTMTRDMSINTAYMTLSGLTFDDTALYYCASLLIVGGFDPLDDFEVWGQGTMVTISS
VL: QSALTQPPSASGSPGQSVTISCSGTSSDVGGYNFVSWYQHHPGKAPKILIYEVTKRPSGVPDRFSGSKSGNTASLTVSGLQAEDEADYYCSSYGGTNNLLFGGGTKLTVL
[6]
  Kd: 26 nM

B7: GAR12 Fab (WT) (Fab, V domains shown)
VH: EVQLVQSGGGLVQPGGSLRLSCAASGFTFSSYAMSWVRQAPGKGLEWVLSISGSGGSTYYADSVKGRFTISIDNSKKTVYLQMNSLRAEDTAVYYCAKSGEQQLVQAEYFHHWGQGTLVTVSS
VL: DIQMTQSPSTLSASVGDRVTITCRASQSIGRWLAWYQQKPGKAPKLLIYDASSLESGVPSRFSGSGFGTEFTLTISSLQPDDFATYYCQQCDSLLTFGGGTKLEIK
[7]
  Kd: 3.5 nM

B8: GAR12 Fab VL D50K (Fab, V domains shown)
VH: B7 VH
VL: B7 VL with D50K
[7]
  Kd: 153 nM
